Source: patent US6989144

How the values were obtained:
Test in all cases: cell ELISA: soluble GPVI-Fc (0.45-1000 nM) competing with GPVI-U937 cells for 100 nM scFv
scFv clone A10 = biological target: T1, scFv clone A10
T1 construct: human scFv from a phage display library; detected through an HA tag, purified through a polyHis tail

scFv clone B4 = biological target: T2, scFv clone B4
T2 construct: human scFv from a phage display library

scFv clone C3 = biological target: T3, scFv clone C3
T3 construct: human scFv from a phage display library

B1: soluble human GPVI-Fc (extracellular domain of GPVI fused to Fc; hGPVI-human IgG1Fc) (Fc fusion)
chain: QSGPLPKPSLQALPSSLVPLEKPVTLRCQGPPGVDLYRLEKLSSSRYQDQAVLFIPAMKRSLAGRYRCSYQNGSLWSLPSDQLELVATGVFAKPSLSAQPGPAVSSGGDVTLQCQTRYGFDQFALYKEGDPAPYKNPERWYRASFPIITVTAAHSGTYRCYSFSSRDPYLWSAPSDPLELVVTGTSVTPSRLPTEPPSSVAEFSEATAELTVSFTNKVFTTETSRSITTSPKESDSPAGPARQYYTKGN
notes: also called hGPVI-hIgG1Fc; hrGPVI; not shown: human IgG1 Fc
scFv clone A10
  IC50: 4.5 nM
scFv clone B4
  IC50: 5 nM
scFv clone C3
  IC50: 38 nM
